From publication PMC6793842 (PLoS Biology, 2019) come the findings set out here.

The chains are these.
T1: P. falciparum RH5 (reticulocyte-binding protein homologue 5) (P. falciparum (3D7), UniProt Q8IFM5 25-526)
T1 sequence: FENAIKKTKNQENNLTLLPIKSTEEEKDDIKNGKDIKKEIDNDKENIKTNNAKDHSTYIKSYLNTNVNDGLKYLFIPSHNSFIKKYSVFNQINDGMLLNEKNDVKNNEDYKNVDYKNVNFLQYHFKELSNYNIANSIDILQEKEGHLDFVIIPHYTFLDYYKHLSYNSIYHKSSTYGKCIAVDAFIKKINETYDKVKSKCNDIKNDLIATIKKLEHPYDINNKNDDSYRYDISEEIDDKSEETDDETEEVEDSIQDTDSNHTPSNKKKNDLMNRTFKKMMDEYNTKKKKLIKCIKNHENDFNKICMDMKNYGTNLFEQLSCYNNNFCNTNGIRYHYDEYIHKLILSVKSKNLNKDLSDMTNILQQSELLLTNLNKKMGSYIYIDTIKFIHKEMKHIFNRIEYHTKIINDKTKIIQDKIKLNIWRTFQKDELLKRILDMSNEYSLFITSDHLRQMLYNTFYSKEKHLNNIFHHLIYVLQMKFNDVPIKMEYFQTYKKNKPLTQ

T2: P. falciparum P113, biotinylated bait (P. falciparum, UniProt Q8ILP3 23-945, biotin (enzymatic monobiotinylation; site not stated))
T2 construct: source: HEK293E, transient transfection, secreted; enzymatically monobiotinylated bait
T2 sequence: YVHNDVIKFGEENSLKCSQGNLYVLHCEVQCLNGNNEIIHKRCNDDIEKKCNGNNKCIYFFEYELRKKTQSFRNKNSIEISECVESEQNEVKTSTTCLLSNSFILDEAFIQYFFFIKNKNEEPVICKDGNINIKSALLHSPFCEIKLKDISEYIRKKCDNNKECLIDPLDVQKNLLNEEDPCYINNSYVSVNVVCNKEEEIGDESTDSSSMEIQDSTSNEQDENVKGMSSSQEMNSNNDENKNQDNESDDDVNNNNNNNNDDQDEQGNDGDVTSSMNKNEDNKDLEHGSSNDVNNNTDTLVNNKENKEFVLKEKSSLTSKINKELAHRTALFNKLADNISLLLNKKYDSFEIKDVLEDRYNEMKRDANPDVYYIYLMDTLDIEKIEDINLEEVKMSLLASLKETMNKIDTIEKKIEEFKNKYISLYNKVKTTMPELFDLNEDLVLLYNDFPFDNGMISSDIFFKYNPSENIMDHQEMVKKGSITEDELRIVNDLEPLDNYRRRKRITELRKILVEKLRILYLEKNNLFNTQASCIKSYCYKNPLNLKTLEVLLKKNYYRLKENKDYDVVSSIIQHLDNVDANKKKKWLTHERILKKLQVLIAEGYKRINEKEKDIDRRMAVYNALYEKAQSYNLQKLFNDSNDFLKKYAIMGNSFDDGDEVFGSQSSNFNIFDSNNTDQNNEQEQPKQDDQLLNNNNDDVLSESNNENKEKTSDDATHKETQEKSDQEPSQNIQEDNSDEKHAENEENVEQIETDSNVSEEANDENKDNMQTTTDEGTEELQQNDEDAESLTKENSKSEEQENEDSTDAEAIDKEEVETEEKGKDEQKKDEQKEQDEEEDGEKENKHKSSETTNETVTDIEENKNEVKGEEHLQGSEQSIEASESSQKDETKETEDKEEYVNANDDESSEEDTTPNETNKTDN

B1: human basigin, entire ectodomain (receptor)
chain: EPGTVFTTVEDLGSKILLTCSLNDSATEVTGHRWLKGGVVLKEDALPGQKTEFKVDSDDQWGEYSCVFLPEPMGTANIQLHGPPRVKAVKSSEHINEGETAMLVCKSESVPPVTDWAWYKITDSEDKALMNGSESRFFVSSSQGRSELHIENLNMEADPGQYRCNGTSSKGSDQAIITLRVRSHLAAL
modifications: enzymatically monobiotinylated
notes: also called HsBSG; BSG; source: HEK293E, transient transfection, secreted, enzymatically monobiotinylated
B2: introgressed ancestral RH5 (reticulocyte-binding protein homologue 5) (ligand)
chain: T1 sequence with H124D, S173Y, Y176H, C179Y, T192R, K195Q
B3: P. falciparum RH5 (reticulocyte-binding protein homologue 5) (ligand)
chain: T1 sequence
B4: chimpanzee basigin, entire ectodomain (receptor)
chain: ASGAAGTVFTTVEDLGSKILLTCYMNDSATEVTGHRWLKGGVVLEEDALPGQKTEFKVDSDDQWGEYSCVFLPEPMGTANIQLHGPPRVKAVKSSEHINEGETAVLVCKSESVPPVTDWAWYKITDSGDKALMNGSESRFFVSSLQGRSELHIENLNMEADPGQYRCNGNSSEGSDQAVITLRVRSHLA
modifications: enzymatically monobiotinylated

Holding throughout (assay): SPR
Holding throughout (settings): both partners purified

Experiment [1] has as its target T1, P. falciparum RH5 (reticulocyte-binding …).
The target of experiment [2] is B1.
The target in experiment [3] is T3, gorilla basigin, entire ectodomain (gorilla, enzymatically monobiotinylated).
T3 construct: also called gorilla BSG; source: HEK293E, transient transfection, secreted, enzymatically monobiotinylated

Experiment [4] concerns the target T2, P. falciparum P113, biotinylated bait.
A further experiment has as its target P. gaboni RH5 (P. gaboni).
The target of another experiment is P. reichenowi RH5 (P. reichenowi, UniProt B4X6H6 1-535).

Positions count from the first letter of the chain named.

As for B1, the Kd in experiment [1] is 1500 ± 200 nM.

On to B2, for which the Kd in experiment [2] came to 2300 ± 100 nM; in experiment [3], 3000 ± 300 nM.

Turning to B3, the binding result in experiment [4] is recorded as “binds”.

As for B4, the values for the Kd in the experiment with P. gaboni RH5 and in the experiment with P. reichenowi RH5 were 2900 ± 100 nM and 4300 ± 500 nM, respectively.
